Measured values: FireProtDB (doi:10.1016/j.bpc.2008.08.008)
Several values for one entry are separate records, joined by “and”; a condition that tells them apart may be missing. Identical values can stand only once.

Settings: Capra hircus, pH 6, Cacodylate 0.03 M, Potassium chloride 0.1 M, reversible: Yes; for denaturant midpoint (higher = more stable) / unfolding free energy: 25 °C, GdnHCl

wild type, Q3LUG9, sequence (Q3LUG9 entry or part of it): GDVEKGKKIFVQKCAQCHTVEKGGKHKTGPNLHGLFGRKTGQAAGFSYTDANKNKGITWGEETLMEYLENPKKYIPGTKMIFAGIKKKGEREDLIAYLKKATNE

## wild type, Q3LUG9
Absorbance
  denaturant midpoint (higher = more stable): 2.7 M and 2.6 M
  unfolding free energy: 9.49 kcal/mol and 9.39 kcal/mol
CD
  denaturant midpoint (higher = more stable): 2.5 M and 2.6 M
  unfolding free energy: 9.3 kcal/mol and 9.58 kcal/mol
Thermal, CD
  heat capacity change of unfolding: 1.29 kcal/mol/K
